According to paper PMC9092428, “Towards identification of protein–protein interaction stabilizers via inhibitory peptide-fragment hybrids using templated fragment ligation” (RSC Chemical Biology, 2022):
Square brackets hold non-standard residues; d marks the D form. Ends that are not written are not given here. Peptide text beside a SMILES is read from it. hydrazide = C-terminal Gly-hydrazide; hydrazone‑SIG17 = not defined here; hydrazone‑FC45 = not defined here; pS = N[C@@H](COP(=O)(O)O)C(=O)O; Ahx = NCCCCCC(=O)O

Columns and labels:
14-3-3η = target: T1, 14-3-3η (Homo sapiens, UniProt Q04917); experiment: Fluorescence anisotropy (FA) competition assay against tracer hDMX361–374^pSer367*; assay type: binding; details: 50 nM hDMX361–374^pSer367*
T1 construct: full length proteins were concentrated by centrifugation; His tag (pProEx HTb vector) (N); made in house; host or cells: E. coli BL21(DE3)
T1 sequence (Q04917 1-246): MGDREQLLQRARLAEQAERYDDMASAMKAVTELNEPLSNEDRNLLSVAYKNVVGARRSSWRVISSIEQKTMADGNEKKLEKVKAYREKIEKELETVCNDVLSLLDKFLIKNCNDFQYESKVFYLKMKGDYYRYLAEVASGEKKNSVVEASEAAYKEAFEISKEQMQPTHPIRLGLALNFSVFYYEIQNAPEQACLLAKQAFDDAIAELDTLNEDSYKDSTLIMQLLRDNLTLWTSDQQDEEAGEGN
Description: A fluorescence anisotropy (FA) competition assay was subsequently carried out using conditions previously found suitable for acylhydrazone formation (pH 6.5, 50 mM NH4OAc, 10 mM aniline) with added DTT (1 mM) to supress disulfide formation. hDMX361–369^pSer367Gly-hydrazide was used to compete with a tracer peptide: hDMX361–374^pSer367* for binding to 14-3-3η (Fig S2, ESI ^†). […] Initial attempts to screen in cocktails, established the aldehydes had no affect on their own (Fig. S3, ESI ^†). We then performed an assay where each aldehyde was screened individually with hDMX361–369^pSer367Gly-hydrazide. A decrease in anisotropy can be attributed to a particular hydrazone product, avoiding the additional step of product identification e.g. by HRMS, and, combines the equilibration step for hydrazone formation with 14-3-3η screening (Fig. 2a). […] To confirm the single-concentration results, a competition assay was performed (Fig. 2b). hDMX361–369^pSer367Gly-hydrazide was equilibrated with 5 equivalents of each aldehyde (product formation confirmed by LC-MS, see Fig. S4, ESI ^†), and serially diluted against the tracer peptide (hDMX361–374^pSer367*) and 14-3-3η protein.
Fig. 2 Dynamic ligation screening based on hDMX361–369^pSer367Gly-hydrazide (a) Anisotropy values of individually screened hydrazones (relative to buffer, zero activity negative control in grey), hDMX361–374^pSer367 (blue) and hDMX361–369^pSer367Gly-hydrazide (red) as positive controls with hits (hDMX361–369^pSer367Gly-hydrazone-FC45 and hDMX361–369^pSer367Gly-hydrazone-SIG17) highlighted in orange boxes (10 μM acetylated hydrazide peptide mixed with 5 eq. of aldehyde, 1 μM 14-3-3η, 50 nM hDMX361–374^pSer367*, 50 mM NH4OAc, 10 mM aniline and 1 mM DTT) (b) competition FA curves for hydrazones taken forward as hits (50 nM hDMX361–374^pSer367*, 1 μM 14-3-3η in 50 mM NH4OAc, 10 mM aniline and 1 mM DTT).
Fig. 3 Dynamic ligation screening based on hDMX361–370^pSer367Gly-hydrazide (a) anisotropy values of individually screened hydrazones (relative to buffer, zero activity negative control in grey), hDMX361–374^pSer367 (blue) and hDMX361–370^pSer367Gly-hydrazide (red) as positive controls with hits highlighted in black boxes (10 μM acetylated hydrazide peptide mixed with 5 eq. of aldehyde, 1 μM 14-3-3η, 50 nM hDMX361–374^pSer367*, 50 mM NH4OAc, 10 mM aniline and 1 mM DTT) (b) representative competition FA curves for hydrazones taken forwards as hits (50 nM hDMX361–374^pSer367*, 1 μM 14-3-3η in 50 mM NH4OAc, 10 mM aniline and 1 mM DTT). […]
Screening was performed using fluorescence anisotropy competition assay, in 50 mM NH4Ac pH 6.5 buffer containing 10 mM aniline, 1 mM DTT. […]

[1] = target: T2, hDMX361–370pSer367Gly* 361-370 (Homo sapiens, UniProt O15151, also: FAM-Ahx, end not given here); experiment: fluorescence anisotropy
T2 chain: {FAM-Ahx}-DCRRTI[pS]APVG

[2] = target: T3, hDMX361–369pSer367Gly-hydrazide 361-369 (Homo sapiens, UniProt O15151); experiment: fluorescence anisotropy competition
T3 chain: DCRRTI[pS]APG-hydrazide

[3] = target: T4, hDMX361–369pSer367Gly-hydrazone-FC45 361-369 (Homo sapiens, UniProt O15151, reading uncertain; also: printed as hDMX361–369pSer367Gly-hydrazone-FC45 361-369); experiment: fluorescence anisotropy competition
T4 chain: DCRRTI[pS]APG-{hydrazone‑FC45}

[4] = target: T5, hDMX361–374pSer367 361-374 (Homo sapiens, UniProt O15151); experiment: fluorescence anisotropy competition
T5 chain: DCRRTI[pS]APVVRPK

[5] = target: T6, hDMX361–369pSer367Gly-hydrazone-SIG17 361-369 (Homo sapiens, UniProt O15151, reading uncertain; also: printed as hDMX361–369pSer367Gly-hydrazone-SIG17 361-369); experiment: fluorescence anisotropy competition
T6 chain: DCRRTI[pS]APG-{hydrazone‑SIG17}

[6] = Fig. 2b experiment, hydrazide equilibrated with 5 eq. aldehyde, serially diluted, 1 μM 14-3-3η, 50 mM NH4OAc, 10 mM aniline, 1 mM DTT, pH 6.5

Work on `CC[C@H](C)[C@H](NC(=O)[C@@H](NC(=O)[C@H](CCCNC(=N)N)NC(=O)[C@H](CCCNC(=N)N)NC(=O)[C@H](CS)NC(=O)[C@H](CC(=O)O)NC(C)=O)[C@@H](C)O)C(=O)N[C@@H](COP(=O)(O)O)C(=O)N[C@@H](C)C(=O)N1CCC[C@H]1C(=O)NCC(=O)NN` [hDMX361–369^pSer367Gly-hydrazide] (HELM PEPTIDE1{[ac].D.C.R.R.T.I.[O=C([C@H](COP(=O)(O)O)N[*:1])[*:2]].A.P.G.[NN[*:1]]}$$$$V2.0) yielded an IC50 (14-3-3η; [6]) of 8.2 ± 1.3 µM.

`CC[C@H](C)[C@H](NC(=O)[C@@H](NC(=O)[C@H](CCCNC(=N)N)NC(=O)[C@H](CCCNC(=N)N)NC(=O)[C@H](CS)NC(=O)[C@H](CC(=O)O)NC(C)=O)[C@@H](C)O)C(=O)N[C@@H](COP(=O)(O)O)C(=O)N[C@@H](C)C(=O)N1CCC[C@H]1C(=O)NCC(=O)N/N=C/c1cc(Br)cc([N+](=O)[O-])c1` [hDMX361–369^pSer367Gly-hydrazone-FC45] (HELM PEPTIDE1{[ac].D.C.R.R.T.I.[O=C([C@H](COP(=O)(O)O)N[*:1])[*:2]].A.P.G.[O=[N+]([O-])c1cc(Br)cc(/C=N/N[*:1])c1]}$$$$V2.0) gave an IC50 (14-3-3η; [6]) of 10.4 ± 0.3 µM.

`CC[C@H](C)[C@H](NC(=O)[C@@H](NC(=O)[C@H](CCCNC(=N)N)NC(=O)[C@H](CCCNC(=N)N)NC(=O)[C@H](CS)NC(=O)[C@H](CC(=O)O)NC(C)=O)[C@@H](C)O)C(=O)N[C@@H](COP(=O)(O)O)C(=O)N[C@@H](C)C(=O)N1CCC[C@H]1C(=O)N[C@H](C(=O)NCC(=O)NN)C(C)C` [hDMX361–370^pSer367Gly-hydrazide] (HELM PEPTIDE1{[ac].D.C.R.R.T.I.[O=C([C@H](COP(=O)(O)O)N[*:1])[*:2]].A.P.V.G.[NN[*:1]]}$$$$V2.0) showed an IC50 (14-3-3η; Fig. 3b experiment, 1 μM 14-3-3η in 50 mM NH4OAc, 10 mM aniline and 1 mM DTT) of 8.5 ± 1.6 µM.

B1: 14-3-3η (protein)
chain: GDREQLLQRARLAEQAERYDDMASAMKAVTELNEPLSNEDRNLLSVAYKNVVGARRSSWRVISSIEQKTMADGNEKKLEKVKAYREKIEKELETVCNDVLSLLDKFLIKNCNDFQYESKVFYLKMKGDYYRYLAEVASGEKKNSVVEASEAAYKEAFEISKEQMQPTHPIRLGLALNFSVFYYEIQNAPEQACLLAKQAFDDAIAELDTLNEDSYKDSTLIMQLLRDNLTLWTSDQQDEEAGEGN
B1 showed a Kd [1] of 0.172 µM, an IC50 [2] of 8.2 µM and an IC50 [3] of 10.4 µM. It also gave an IC50 [4] of 8.5 µM and an IC50 [5] of 13.7 µM.
